Measured values: paper PMC10266016 (Proceedings of the National Academy of Sciences of the …, 2023)
Substitutions are numbered along the chain they refer to.

B1: PTHR PBM peptide, 22-mer (peptide)
peptide: DEEASGPERPPALLQEEWETVM
B2: PTHR PBM peptide, 8-mer (peptide)
peptide: QEEWETVM

What was measured:
Experiment in all cases: ITC
[1] = biological target: Human Scribble PDZ1 domain (human) (UniProt Q14160)
[2] = biological target: Human Scribble PDZ3 domain (human) (UniProt Q14160)
[3] = biological target: Human Scribble PDZ1 domain (human, UniProt Q14160 700-816)
Human Scribble PDZ1 domain, sequence (Q14160 700-816): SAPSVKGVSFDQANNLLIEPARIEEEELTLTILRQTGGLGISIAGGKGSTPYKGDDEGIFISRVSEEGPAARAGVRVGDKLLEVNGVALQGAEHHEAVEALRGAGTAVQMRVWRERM

[4] = biological target: T1, Human Scribble PDZ3 domain (human, UniProt Q14160 1002-1092)
T1 sequence: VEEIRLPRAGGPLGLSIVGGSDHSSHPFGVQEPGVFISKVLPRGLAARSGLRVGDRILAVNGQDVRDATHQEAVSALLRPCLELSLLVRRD

Scribble PDZ3 K1040A = biological target: T2, Scribble PDZ3 K1040A (human, UniProt Q14160 1002-1092, K1040A)
T2 sequence: T1 sequence with K39A

Scribble PDZ1 R762A = Scribble PDZ1 R762A (human, UniProt Q14160 700-816, R762A)
Scribble PDZ1 R762A, sequence (Q14160 700-816 R762A): as the sequence (Q14160 700-816) above, with R63A counted along it

Human Scribble PDZ1 domain (human), sequence (Q14160 700-816): as the sequence (Q14160 700-816) above

Molecule | Kd [1] [µM] | Kd [2] [µM] | Kd [3] [µM] | Kd [4] [µM] | Kd (Scribble PDZ3 K1040A) [µM] | Kd (Scribble PDZ1 R762A) [µM]
PTHR PBM peptide, 4-mer | 57 | 17.1 |  |  |  | 
B1 |  |  | 11.5 | 19.2 |  | 
B2 |  |  | 31.7 | 13.4 | 23.5 | 39.9
